{
  "source": "paper PMC9288967",
  "key": {"[1]": {"biological_target": "spike RBD of the Alpha variant (B.1.1.7) (SARS-CoV-2) (UniProt P0DTC2)", "assay": "cross-linking"}, "[2]": {"biological_target": "spike RBD of the Delta variant (B.1.617.2) (SARS-CoV-2) (UniProt P0DTC2)", "assay": "cross-linking"}},
  "data": [
    {"substance": "mNb6(108FFY) (VHH)", "values": [
      {"measurement": "kobs (apparent first-order constant of cross-linking)", "setting": "[1]", "value": 0.086, "unit": "h⁻¹"},
      {"measurement": "kobs (apparent first-order constant of cross-linking)", "setting": "[2]", "value": 0.156, "unit": "h⁻¹"}
    ]}
  ]
}
